Changes are numbered by the printed parent chain.
B1: ch4-E6-E4-B12 (antibody, V domains shown)
VH: EVQLKESGAELVKPGASVKLSCKASGYTFTSHWMHWVKQRPGQGLEWIGEINPSNGRTNYNEKFTSKATLTVDQSSSTAYMQLSSLTSEDSAVYYCARGNLTTVVPFDYWGQGTALTVSS
VL: DIVMTQSPSSLSASLGGKVTITCKASQDINKFIAWYQHKPGKGPRLLIHFTSTLQPGIPSRFSGSGSGRDYSFSISNLEPEDIATYFCLQYDLLLTFGGGTKLEIK
B2: ch2-H8-C9-F7-E2 (antibody, V domains shown)
VH: B1 VH with K5Q, E6Q, S31N, H32Y, T65K, Q74K, N100S, A115T
VL: DIQMTQTPSSLSASLGGKVTITCKASQDINNYIAWYQHKPGKGPRLLIHYTSTLQPGIPSRFSGSGSGRDYSFSISNLEPEDIATYFCLQYDILLTFGGGTKLEK
B3: ch36-F4-H1-D9 (antibody, V domains shown)
VH: EVKLLESGGGLVQPGGSLKLSCAASGFDFSRYWMIWVRQAPEKGLEWIGEINPDSSTINYTPSLKDKFIISRDNAKNTLYLQMSKVRSEDTALYYCARPYYRYDVGYFDVWGAGTTVTVSS
VL: DIVMTQAPKVLLVSAGDRVTISCKASQSVSNAVVWYQQKPGQSPKLLIFYASNRYTGVPDRFTGSGYGTDFTFSISTVQAEDLAVYFCQQDYSSPWTFGGGTKLEIK
B4: ch44-F10-B6-D4 (antibody, V domains shown)
VH: EVHLVESGGGLVKPGGSLKLSCAASGFTFSSYAMSWVRQTPEKRLEWVATISSGGSYIYYPDSVKGRFTISRDNAKNTLYLQMSSLRSEDTAMYYCARQDWDGGDYYAMDYWGQGTSVTVSS
VL: DIVMTQSPSSLAVSAGEKVTMSCKSSQSVLYSSNQKNFLAWYQQKPGQSPKLLIYWASTRESGVPDRFTGSGSGTDFTLTISSVQAEDLAVYYCHQYLSSLTFGAGTKLELK
B5: ch25-G9-G4-C12 (antibody, V domains shown)
VH: EVQLVESGGDLVKPGGSLKLSCAASGFTFSSHGMSWVRQTPDKRLEWVATINSGGYYTYYPDSVKGRFTISRDNAKNTLYLQMSSLKSEDTAMYYCARGQLGNWYFDVWGAGTTVTVSS
VL: DIVMTQSPAIMSASPGEKVTITCSASSSVSYMHWFQQKPGTSPKLWIYSTSNLASGVPARFSGSGSGTSYSLTISRMEAEDAATYYCQQRSSYPLTFGAGTKLELK
B6: IO-202 (antibody, V domains shown)
VH: EVQLLESGGGLVQPGGSLRLSCAASGIDFSNHYYMYWVRQAPGKGLEWIGSIFSGDSASTYYADSAKGRFTISRDNSKNTLYLQMNSLRAEDTAVYYCARGMSTNDWASDLWGQGTLVTVSS
VL: DIQMTQSPSSLSASVGDRVTITCQASESINSIYLAWYQQKPGKAPKLLIYRASTLASGVPSRFSGSGSGTDFTLTISSLQPEDFATYYCQQSYDWGDVENTFGGGTKVEIK
B7: h8-B3-F6-H8 (antibody, V domains shown)
VH: EVQLVESGGGLVQPGGSLRLSCAASGFDFSRYWMSWVRQAPGKGLVWIGEINPESSAINYAPSLKDRFTISRDNAKNTLYLQMNSLRAEDTAVYYCATSMTMDYWGQGTLVTVSS
VL: DIQMTQSPSSLSASVGDRVTITCKASQDIKSYLSWYQQKPGKAPKTLIYYATSLAGGVPSRFSGSGSGTDYTLTISSLQPEDFATYYCLQHGESPYTFGGGTKLEIK
notes: humanized antibody of ch8-B3-F6-H8; also called humanized 8-B3-F6-H8
B8: h2-H1-D7-E5-D5 (antibody, V domains shown)
VH: EVQLVESGGGLVQPGGSLRLSCAASGFTFSSFGMHWVRQAPGKGLEWVAYISSGSSSIYYADTVKGRFTISRDNAKNSLYLQMNSLRAEDTAVYYCARGTGTGAMDYWGQGTLVTVSS
VL: DIQMTQSPSSLSASVGDRVTITCRTSQDISNYLNWYQQKPGKAPKLLIYYTSKLHSGVPSRFSGSGSGTDFTFTISSLQPEDIATYFCQQGNTLPWTFGGGTKLEIK
notes: humanized antibody of ch2-H1-D7-E5-D5; also called humanized 2-H1-D7-E5-D5

target: T1, human LILRA6 protein (human, UniProt Q6PI73 24-447, limits assumed); assay: ELISA, LILRA6 protein
T1 construct: protein for ELISA; construct not described; also called hLILRA6 protein
T1 sequence (Q6PI73 24-447 limits assumed): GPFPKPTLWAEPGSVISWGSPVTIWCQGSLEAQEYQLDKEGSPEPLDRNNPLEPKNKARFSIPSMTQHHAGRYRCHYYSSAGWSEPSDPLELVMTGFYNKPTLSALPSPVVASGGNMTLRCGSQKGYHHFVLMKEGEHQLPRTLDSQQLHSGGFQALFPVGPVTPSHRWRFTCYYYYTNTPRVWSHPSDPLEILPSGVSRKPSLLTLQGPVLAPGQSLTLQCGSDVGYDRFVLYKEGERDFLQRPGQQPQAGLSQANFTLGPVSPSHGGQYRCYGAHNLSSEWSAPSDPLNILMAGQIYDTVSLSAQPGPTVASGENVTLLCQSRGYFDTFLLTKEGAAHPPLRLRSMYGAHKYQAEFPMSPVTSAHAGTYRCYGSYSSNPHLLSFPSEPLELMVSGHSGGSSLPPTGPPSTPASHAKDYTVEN

| Binder | ELISA(OD450) | binding result |
| --- | --- | --- |
| B1 | 0.353 | – |
| B2 | 0.576 | – |
| B3 | – | no binding |
| B4 | – | no binding |
| B5 | 0.687 | – |
| B6 | 0.157 | – |

target: T2, human LILRB4 (human, UniProt Q8NHJ6 22-448); assay: cell-based or functional assay

| Binder | Max cell cytotoxicity (%), ADCC on THP-1 cells [%] | EC50 (nM), ADCC on THP-1 cells [nM] |
| --- | --- | --- |
| B1 | 14.6 | – |
| B2 | 31.1 | 1.38 |
| B3 | 17.9 | – |
| B4 | 0.43 | 1.43 |
| B5 | 11 | – |
| B6 | 13.9 | 248 |

target: T2, human LILRB4; assay: cell-based or functional assay; remark: another data set of the same source

| Binder | ADCP (%) at 133.3 nM, macrophages and MV-4-11 cells [%] |
| --- | --- |
| B1 | 14.1 |
| B2 | 9.35 |
| B3 | 14.8 |
| B4 | 3.12 |
| B5 | 24.2 |
| B6 | 21.8 |

target: T2, human LILRB4; assay: cell-based or functional assay; remark: another data set of the same source

| Binder | FcγR stimulation (TNF-α, pg/mL) [pg/mL] | Fold change (Compared to isotype) [fold] |
| --- | --- | --- |
| B1 | 266 | 8.43 |
| B2 | 310 | 9.82 |
| B3 | 543 | 17.2 |
| B4 | 126 | 3.97 |
| B5 | 356 | 11.3 |
| B6 | 238 | 7.52 |

target: T3, human LILRB3 (human, UniProt O75022 24-631); assay: FACS, 293F-hLILRB3 cells
T3 construct: whole, on cells; also called hLILRB3
Description: (§1) The protocol for FACS analysis is described as follows: [0438] (a) Cells were harvested by centrifugation at 300 g for 3 mins. […] (b) The cells were washed for 2 times with FACS buffer by centrifuging at 300 g for 3 mins and the supernatant was discarded. [0440] (c) Cell were resuspended and seeded into assay plate (2×10⁵ cells/well) in 50 μl FACS buffer. […] Cells were incubated with antibodies at 4° C. for 1 hour. […] (d) Step (b) was repeated and the cells were resuspended with 100 μl diluted 2nd antibody, incubated at 4° C. for 1 hour in the dark. [0442] (e) Step (b) was repeated and the cells were resuspended with 100 μl FACS buffer. The cells were kept in dark for FACS analysis.

T3 sequence (O75022 24-631): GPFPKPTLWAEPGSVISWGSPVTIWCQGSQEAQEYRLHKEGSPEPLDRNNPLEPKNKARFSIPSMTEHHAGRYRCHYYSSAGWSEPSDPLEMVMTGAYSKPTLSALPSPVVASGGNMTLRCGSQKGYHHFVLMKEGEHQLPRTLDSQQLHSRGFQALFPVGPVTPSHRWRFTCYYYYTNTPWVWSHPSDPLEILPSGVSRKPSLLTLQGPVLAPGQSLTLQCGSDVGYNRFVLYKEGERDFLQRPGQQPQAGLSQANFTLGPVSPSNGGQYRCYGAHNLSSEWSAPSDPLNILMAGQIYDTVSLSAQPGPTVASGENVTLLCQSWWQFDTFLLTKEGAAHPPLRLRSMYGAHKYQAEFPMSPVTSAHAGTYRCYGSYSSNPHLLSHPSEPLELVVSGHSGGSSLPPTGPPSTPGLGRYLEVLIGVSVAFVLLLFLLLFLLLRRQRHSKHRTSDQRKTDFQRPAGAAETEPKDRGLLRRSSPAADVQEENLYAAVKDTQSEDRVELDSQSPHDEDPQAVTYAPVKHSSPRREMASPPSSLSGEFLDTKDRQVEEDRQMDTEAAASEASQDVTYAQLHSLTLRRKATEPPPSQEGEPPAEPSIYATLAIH

| Binder | binding result |
| --- | --- |
| B1 | no binding (tested: up to 66.67 nM) |
| B2 | no binding (tested: up to 66.67 nM) |
| B3 | no binding (tested: up to 66.67 nM) |
| B4 | no binding (tested: up to 66.67 nM) |
| B5 | no binding (tested: up to 66.67 nM) |
| B6 | no binding (tested: up to 66.67 nM) |

target: T2, human LILRB4; assay: FACS, 293F-hLILRB4 cells
Description: as §1

| Binder | EC50 [nM] | Max MFI [MFI] |
| --- | --- | --- |
| B1 | 1.09 | 54500 |
| B2 | 1.23 | 41000 |
| B3 | 1.99 | 48200 |
| B4 | 0.57 | 5470 |
| B5 | 1.55 | 43300 |
| B6 | 0.016 | 39700 |

target: T4, cynomolgus (Macaca fascicularis) LILRB4 (cynomolgus (Macaca fascicularis)); assay: FACS, CHO-S-cynoLILRB4 cells
T4 construct: whole, on cells; also called cynoLILRB4; CHO-S-cynoLILRB4
Description: as §1

| Binder | EC50 [nM] |
| --- | --- |
| B4 | 103 |

target: T2, human LILRB4; assay: ELISA and FACS on 293F-hLILRB4 cells

| Binder | binding result |
| --- | --- |
| B7 | binds |
| B8 | binds |
